Test results published in US7101845 (JOSLIN DIABETES CENTER, dated 2006).
Positions of bridges follow the written chain, without caps; N, C: chain ends.

Molecular target: MCH receptor (MCHR1) (mouse, UniProt Q8JZL2 1-353)
Assay: cell-based or functional assay

MCH receptor (MCHR1), sequence (Q8JZL2 whole entry): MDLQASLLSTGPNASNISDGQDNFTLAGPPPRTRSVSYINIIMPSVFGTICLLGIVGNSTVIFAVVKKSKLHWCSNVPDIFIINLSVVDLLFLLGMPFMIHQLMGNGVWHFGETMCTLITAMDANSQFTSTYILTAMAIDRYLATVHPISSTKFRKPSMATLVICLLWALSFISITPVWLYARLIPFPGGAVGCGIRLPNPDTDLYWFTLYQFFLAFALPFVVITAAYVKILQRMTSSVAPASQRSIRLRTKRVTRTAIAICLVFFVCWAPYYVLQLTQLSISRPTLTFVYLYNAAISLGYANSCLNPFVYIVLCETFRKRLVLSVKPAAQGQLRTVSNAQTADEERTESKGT

For H-DFDMLRCMLGRVYRPCWQV-OH (disulfide 7-16 (inferred)) [Melanocyte concentrating hormone (MCH)], the “insulin secretion from islets of MCH over expressing mice” value was 4 fold and the “insulin secretion from overnight cultured islets of C57B1/6J mice, 100 nM MCH, 30 min, 11.1 mM glucose” value was 2.4 fold.
